Data as given in PMC11142304.

Key:
[1] = target: LnaB (recombinant, ITC and AUC) (L. pneumophila); assay: ITC
[2] = target: ADP-ribosylated ubiquitin (ADPR-Ub) (UniProt P0CG48); assay: ITC

Actin (Sangon Biotech, A001041) (from UniProt P60709 1-375) (natural protein)
stoichiometry N [1]: 0.84

MavL_N322A
Kd [2]: 5.96 µM
